According to patent US20110300138A1 (published 2011):
One block for each molecule: values may come before it.

Assays:
[1] = target: TSHR (thyroid stimulating hormone receptor), full length human (human) (UniProt P16473); experiment: competitor ^125I-K1-70 IgG, TSHR coated tubes; 1 µg/mL in HBD
[2] = target: TSHR (full length) coated on tubes (human) (UniProt P16473); experiment: inhibition of 125I-K1-18 Fab (competitor) binding to TSHR coated tubes; test sample 0.01 µg/mL in assay buffer
[3] = target: human TSH receptor (full length) coated on ELISA plate wells (human) (UniProt P16473); experiment: TSH-biotin binding inhibition ELISA, TSHR coated wells; 100 µg/mL in assay buffer + 100 µg/mL 5B3 IgG; negative control MAb
[4] = target: TSH receptor (TSHR) coated on tubes (human) (UniProt P16473); experiment: inhibition of 125I-K1-70 IgG binding to TSHR coated tubes; negative control 100 µg/mL in HBD serum pool; duplicate determination
[5] = target: TSHR (full length) coated on tubes (human) (UniProt P16473); experiment: inhibition of 125I-K1-18 Fab (competitor) binding to TSHR coated tubes; negative control 1 µg/mL in assay buffer
[6] = target: human thyroid stimulating hormone receptor (TSHR), full length (human) (UniProt P16473); experiment: 125I-K1-70 Fab (competitor) binding to TSHR coated tubes; negative control MAb 1 µg/mL in assay buffer
[7] = target: human thyroid stimulating hormone receptor (TSHR), full length (human) (UniProt P16473); experiment: 125I-K1-70 Fab (competitor) binding to TSHR coated tubes; negative control MAb 0.1 µg/mL in HBD serum
[8] = target: human thyroid stimulating hormone receptor (TSHR), full length (human) (UniProt P16473); experiment: 125I-K1-70 Fab (competitor) binding to TSHR coated tubes; negative control MAb 0.001 µg/mL in assay buffer
[9] = target: TSHR (full length) coated on tubes (human) (UniProt P16473); experiment: inhibition of 125I-K1-18 Fab (competitor) binding to TSHR coated tubes; negative control 10 µg/mL in assay buffer
[10] = target: TSH receptor (full length human TSHR) (human) (UniProt P16473); experiment: competition ELISA: inhibition of M22 Fab-peroxidase (competitor) binding to TSHR coated wells; negative control at 1 µg/mL diluted in assay buffer
[11] = target: TSH receptor (full length human TSHR) (human) (UniProt P16473); experiment: competition ELISA: inhibition of M22 Fab-peroxidase (competitor) binding to TSHR coated wells; negative control at 0.01 µg/mL diluted in HBD serum pool
[12] = target: human TSH receptor (full length) coated on ELISA plate wells (human) (UniProt P16473); experiment: TSH-biotin binding inhibition ELISA, TSHR coated wells; 10 µg/mL in HBD serum pool; negative control MAb
[13] = target: human thyroid stimulating hormone receptor (TSHR), full length (human) (UniProt P16473); experiment: 125I-K1-70 Fab (competitor) binding to TSHR coated tubes; negative control MAb 100 µg/mL in HBD serum
[14] = target: TSHR with Arg109 mutated to Ala, expressed in CHO cells (human) (UniProt P16473); experiment: cell-based or functional assay
[15] = target: wild type TSHR (human TSH receptor) expressed in CHO cells (human) (UniProt P16473); experiment: cell-based or functional assay
[16] = target: TSHR with Phe134 mutated to Ala, expressed in CHO cells (human) (UniProt P16473); experiment: cell-based or functional assay
[17] = target: wild type TSHR expressed in CHO cells (human) (UniProt P16473); experiment: cell-based or functional assay
[18] = target: thyroid stimulating hormone receptor (TSHR), full length, coated on tubes (human) (UniProt P16473); experiment: inhibition of 125I-TSH binding, TSHR coated tubes; antibody 0.001 µg/mL in assay buffer; mean of duplicate
[19] = target: human TSH receptor (full length) coated on ELISA plate wells (human) (UniProt P16473); experiment: TSH-biotin binding inhibition ELISA, TSHR coated wells; 0.003 µg/mL in assay buffer + 100 µg/mL 5B3 IgG
[20] = target: TSH receptor (full length human TSHR) coated on tubes (human) (UniProt P16473); experiment: 125I-TSH binding inhibition read against NIBSC 90/672; mean over 10, 30 and 100 ng/mL, in serum
[21] = target: TSH receptor (TSHR), full length human, coated on tubes (human) (UniProt P16473); experiment: inhibition of 125I-TSH binding to TSHR coated tubes; 0.003 µg/mL, diluted in assay buffer
[22] = target: thyroid stimulating hormone receptor (full length human TSHR) (human) (UniProt P16473); experiment: ELISA: inhibition of M22 Fab-peroxidase (competitor) binding to TSHR coated wells; 100 µg/mL, diluted in HBD serum pool
[23] = target: TSH receptor (TSHR), full length human, coated on tubes (human) (UniProt P16473); experiment: inhibition of 125I-K1-18 IgG (competitor) binding to TSHR coated tubes; test sample at 0.1 µg/mL in assay buffer
[24] = target: TSH receptor (TSHR), full length human, coated on tubes (human) (UniProt P16473); experiment: inhibition of 125I-K1-18 IgG (competitor) binding to TSHR coated tubes; test sample at 0.01 µg/mL in HBD serum pool
[25] = target: thyroid stimulating hormone receptor (full length human TSHR) (human) (UniProt P16473); experiment: ELISA: inhibition of M22 Fab-peroxidase (competitor) binding to TSHR coated wells; 0.01 µg/mL, diluted in assay buffer

Molecule: 5B3 IgG (antibody)
- % inhibition of TSH-biotin binding [3]: 1.1%
- Inhibition of binding (%) [4]: 1.1%
- Inhibition of binding (%) [5]: -0.9%
- Inhibition of binding (%) [6]: -1.7%
- Inhibition of binding (%) [7]: -8.7%
- Inhibition of binding (%) [8]: -1.8%
- Inhibition of binding (%) [9]: 0.6%
- Inhibition of binding (%) [10]: 3.4%
- Inhibition of binding (%) [11]: 4.3%
- % inhibition of TSH-biotin binding [12]: 11.6%
- Inhibition of binding (%) [13]: -8.6%

Molecule: M22 IgG (antibody)
- Inhibition of binding (%) [18]: 1.5%
- % inhibition of TSH-biotin binding [19]: -0.5%
- mean units/mg [20]: 131 units/mg
- Inhibition of binding (%) [21]: -1.5%

B1: 5C9 IgG (antibody, from another filing, V domains shown)
VH: EVQLVESGGGLIQPGGSLRLSCAASGFTVSSNYMSWVRQAPGKGLEWVSVTYSGGSTSYADSVKGRFTISRDNSKNTLYLQMNSLRAEDTAVYYCARGGRYCSSISCYARSGCDYWGQGTLVTVSS
VL: AIQMTQSPSSLSASVGDRVTITCRASQSISNYLNWYQQKPGKAPKLLIYAASSLQSGVPSRFSGSGSGTDFTLTISSLQPEDFATYYCQQSYSSPSTTFGQGTKLEIK
- Inhibition of binding (%) [22]: 19.6%
- Inhibition of binding (%) [23]: 33.4%
- Inhibition of binding (%) [24]: -1.8%
- Inhibition of binding (%) [25]: 0.6%

The remaining lines, values ahead:

- Inhibition of binding (%) [1]: 40.5%
- Inhibition of binding (%) [2]: 7.9%
Molecule: 9D33 IgG (antibody)

- Cyclic AMP produced, mutated TSHR, TSH 0.01 ng/mL [14]: 3.15 pmol/mL
- Cyclic AMP produced, mutated TSHR, TSH 0.03 ng/mL [14]: 4.92 pmol/mL
- Cyclic AMP produced, mutated TSHR, TSH 0.1 ng/mL [14]: 8.39 pmol/mL
- Cyclic AMP produced, mutated TSHR, TSH 0.3 ng/mL [14]: 39.2 pmol/mL
- Cyclic AMP produced, mutated TSHR, TSH 1 ng/mL [14]: 43.8 pmol/mL
- Cyclic AMP produced, mutated TSHR, TSH 3 ng/mL [14]: 55.2 pmol/mL
- Mutated/Wild type (%) of cyclic AMP produced, TSH 0.01 ng/mL [14]: 115%
- Mutated/Wild type (%) of cyclic AMP produced, TSH 0.03 ng/mL [14]: 116%
- Mutated/Wild type (%) of cyclic AMP produced, TSH 0.1 ng/mL [14]: 89%
- Mutated/Wild type (%) of cyclic AMP produced, TSH 0.3 ng/mL [14]: 99%
- Mutated/Wild type (%) of cyclic AMP produced, TSH 1 ng/mL [14]: 72%
- Mutated/wild type (%) of cyclic AMP produced; TSH 3 ng/mL [14]: 78%
- Cyclic AMP produced, wild type TSHR, TSH 0.01 ng/mL [15]: 2.74 pmol/mL
- Cyclic AMP produced, wild type TSHR, TSH 0.03 ng/mL [15]: 4.24 pmol/mL
- Cyclic AMP produced, wild type TSHR, TSH 0.1 ng/mL [15]: 9.39 pmol/mL
- Cyclic AMP produced, wild type TSHR, TSH 0.3 ng/mL [15]: 39.6 pmol/mL
- Cyclic AMP produced, wild type TSHR, TSH 1 ng/mL [15]: 61.2 pmol/mL
- Cyclic AMP produced, wild type TSHR, TSH 3 ng/mL [15]: 70.6 pmol/mL
- % inhibition of TSH stimulation; TSH (2) [16]: 9%
- Cyclic AMP produced; TSH 3 ng/mL [16]: 111 pmol/mL
- Cyclic AMP produced; TSH (2) [16]: 102 pmol/mL
- Mutated/wild type (%) of cyclic AMP produced; TSH 3 ng/mL [16]: 103%
- Mutated/wild type (%) of cyclic AMP produced; TSH (2) [16]: 71%
- Cyclic AMP produced; TSH 3 ng/mL [17]: 108 pmol/mL
- Cyclic AMP produced; TSH (2) [17]: 142 pmol/mL
Molecule: TSH (ligand)
